Consider one protein from doi:10.1101/286310, “Dynamics of human protein kinases linked to drug selectivity” (bioRxiv, 2018).

This data set concerns the molecule itself. Description: crystal structure; co-crystallised: 240 uM deP Aurora A 122-403 + 1.0 mM AT9283 + 250 uM Mb; sitting drop, 18 °C; 0.1 M Bis-Tris pH 5.5, 0.2 M magnesium chloride, 19% (w/v) PEG-3350.

B1: dephosphorylated Aurora A (122-403) (domain or fragment, human, UniProt O14965 122-403, looked up)
chain: ESKKRQWALEDFEIGRPLGKGKFGNVYLAREKQSKFILALKVLFKAQLEKAGVEHQLRREVEIQSHLRHPNILRLYGYFHDATRVYLILEYAPLGTVYRELQKLSKFDEQRTATYITELANALSYCHSKRVIHRDIKPENLLLGSAGELKIADFGWSVHAPSSRRTTLCGTLDYLPPEMIEGRMHDEKVDLWSLGVLCYEFLVGKPPFEANTYQETYKRISRVEFTFPDFVTEGARDLISRLLKHNPSQRPMLREVLEHPWITANSSKPSNCQNKESASKQS
notes: Aurora A kinase (Ser/Thr kinase), residues 122-403, dephosphorylated; also called AurA; deP Aurora A^122-403; source: expressed and purified as described before (Zorba et al., 2014); dephosphorylated state confirmed by mass spectrometry
With B1, the binding result is “binds”.
